# How the values were obtained:
# HLA-A*01:01 = assay: IEDB peptide-MHC binding, purified MHC/competitive/radioactivity; filed as Kd, often an IC50 or EC50 that approximates it; ≥ and ≤ were set here for values at or beyond the usual limits of such assays
# HLA-A*26:01 = assay: as above
# HLA-A*30:02 = assay: as above
# HLA-A*24:02 = assay: as above
# HLA-A*23:01 = assay: as above
# HLA-A*29:02 = assay: as above
# HLA-B*15:01 [1] = assay: as above
# HLA-B*15:01 [2] = assay: IEDB peptide-MHC binding, purified MHC/competitive/fluorescence; filed as Kd, often an IC50 or EC50 that approximates it; ≥ and ≤ were set here for values at or beyond the usual limits of such assays
# HLA-B*58:01 = assay: IEDB peptide-MHC binding, purified MHC/direct/fluorescence; filed as Kd, often an IC50 or EC50 that approximates it; ≥ and ≤ were set here for values at or beyond the usual limits of such assays
# HLA-B*57:01 = assay: as above
# HLA-B*46:01 [3] = assay: as above; conditions: source organism: West Nile virus
# HLA-B*40:01 = assay: IEDB peptide-MHC binding, purified MHC/competitive/radioactivity; filed as Kd, often an IC50 or EC50 that approximates it; ≥ and ≤ were set here for values at or beyond the usual limits of such assays; conditions: source organism: Dengue virus 4 Philippines/H241/1956
# HLA-A*68:01 = assay: as above; conditions: source organism: Dengue virus 2 Jamaica/1409/1983
# HLA-A*11:01 = assay: as above; conditions: source organism: Dengue virus 2 Jamaica/1409/1983
# HLA-A*03:01 = assay: as above; conditions: source organism: Dengue virus 2 Jamaica/1409/1983
# HLA-A*30:01 = assay: as above; conditions: source organism: Dengue virus 2 Jamaica/1409/1983
# HLA-B*44:02 = assay: as above; conditions: source organism: Dengue virus 4 Philippines/H241/1956
# HLA-A*02:01 = assay: IEDB peptide-MHC binding, purified MHC/competitive/fluorescence; filed as Kd, often an IC50 or EC50 that approximates it; ≥ and ≤ were set here for values at or beyond the usual limits of such assays; conditions: source organism: Escherichia coli B171
# HLA-B*46:01 [4] = assay: as above; conditions: source organism: Francisella tularensis subsp. tularensis FSC198
# HLA-B*53:01 = assay: IEDB peptide-MHC binding, purified MHC/competitive/radioactivity; filed as Kd, often an IC50 or EC50 that approximates it; ≥ and ≤ were set here for values at or beyond the usual limits of such assays; conditions: source organism: Dengue virus 4 Philippines/H241/1956
# [5] = source organism: SARS coronavirus Tor2
# [6] = source organism: Lymphocytic choriomeningitis virus (strain Armstrong)
# [7] = source organism: Dengue virus 3 Martinique/1243/1999
# [8] = source organism: Yersinia pestis Antiqua
# [9] = source organism: Dengue virus 4 Philippines/H241/1956
# [10] = source organism: Vaccinia virus WR
# [11] = source organism: Dengue virus 2 Jamaica/1409/1983
# [12] = source organism: Mammarenavirus juninense
# [13] = source organism: Lassa virus Josiah
# [14] = source organism: Mammarenavirus lassaense
# [15] = source organism: Giardia lamblia ATCC 50803
sequence,measurement,setting,value
ELADTSLSGY,Kd,HLA-A*01:01; [5],73.6 nM
same,Kd,HLA-A*26:01; [5],24.5 nM
same,Kd,HLA-A*30:02; [5],76.7 nM
same,Kd,HLA-A*24:02; [5],≥ 70300 nM
same,Kd,HLA-A*23:01; [5],≥ 70000 nM
same,Kd,HLA-A*29:02; [5],89.2 nM
FQPQNGQFI,Kd,HLA-A*01:01; [6],≥ 78100 nM
same,Kd,HLA-A*26:01; [6],≥ 77900 nM
same,Kd,HLA-A*30:02; [6],≥ 76900 nM
same,Kd,HLA-A*24:02; [6],1260 nM
same,Kd,HLA-A*23:01; [6],≥ 20400 nM
same,Kd,HLA-A*29:02; [6],≥ 78900 nM
LQRKHGGML,Kd,HLA-B*15:01 [1]; [7],31.2 nM
NSKVQIGEY,Kd,HLA-A*01:01; [5],≥ 37700 nM
same,Kd,HLA-A*26:01; [5],235 nM
same,Kd,HLA-A*30:02; [5],57.2 nM
same,Kd,HLA-A*24:02; [5],≥ 34800 nM
same,Kd,HLA-A*23:01; [5],≥ 77800 nM
same,Kd,HLA-A*29:02; [5],2270 nM
FLCDDTITY,Kd,HLA-B*15:01 [2]; source organism: West Nile virus,298 nM
ASSALDAHF,Kd,HLA-B*58:01; [8],4.4 nM
same,Kd,HLA-B*57:01; [8],396 nM
LLLMRTTWAF,Kd,HLA-A*24:02; [9],292 nM
same,Kd,HLA-A*23:01; [9],694 nM
same,Kd,HLA-B*15:01 [1]; [9],1.24 nM
LIIKLLLPG,Kd,HLA-B*15:01 [1]; [10],1120 nM
KWDLIISDMY,Kd,HLA-A*01:01; [5],≥ 90900 nM
same,Kd,HLA-A*26:01; [5],≥ 20700 nM
same,Kd,HLA-A*30:02; [5],85.9 nM
same,Kd,HLA-A*24:02; [5],≥ 39400 nM
same,Kd,HLA-A*23:01; [5],≥ 70000 nM
same,Kd,HLA-A*29:02; [5],253 nM
LVRSTVSSI,Kd,HLA-B*15:01 [1]; source organism: Vaccinia virus Copenhagen,527 nM
LMNDPGAPW,Kd,HLA-B*46:01 [3],8980 nM
EQKAYVPAM,Kd,HLA-B*15:01 [1]; [10],0.773 nM
LQGRGPLKLF,Kd,HLA-B*15:01 [1]; [11],135 nM
FEEYKRSGI,Kd,HLA-B*40:01,1290 nM
IWYMWLGARF,Kd,HLA-A*24:02; [11],6.14 nM
same,Kd,HLA-A*23:01; [11],8.27 nM
GVPLLAIGCY,Kd,HLA-A*26:01; [11],128 nM
same,Kd,HLA-A*30:02; [11],3350 nM
VWLGFIAGL,Kd,HLA-A*01:01; [5],≥ 78100 nM
same,Kd,HLA-A*26:01; [5],≥ 77900 nM
same,Kd,HLA-A*30:02; [5],12 nM
same,Kd,HLA-A*24:02; [5],≥ 46900 nM
same,Kd,HLA-A*23:01; [5],7040 nM
same,Kd,HLA-A*29:02; [5],36.2 nM
IFFASFYYI,Kd,HLA-A*01:01; [5],1300 nM
same,Kd,HLA-A*26:01; [5],1800 nM
same,Kd,HLA-A*30:02; [5],5130 nM
same,Kd,HLA-A*24:02; [5],12.2 nM
same,Kd,HLA-A*23:01; [5],6.45 nM
same,Kd,HLA-A*29:02; [5],28.1 nM
EMVCFHEFL,Kd,HLA-A*24:02; [12],16900 nM
same,Kd,HLA-A*23:01; [12],1990 nM
same,Kd,HLA-A*29:02; [12],≥ 10000 nM
HTSEHGGRAY,Kd,HLA-A*01:01; [7],1030 nM
same,Kd,HLA-A*26:01; [7],163 nM
same,Kd,HLA-A*30:02; [7],≥ 44100 nM
same,Kd,HLA-B*15:01 [1]; [7],146 nM
NGVVTTSGTY,Kd,HLA-A*30:02; source organism: Dengue virus 1 Brazil/97-11/1997,694 nM
EGKDTPGGY,Kd,HLA-A*01:01; [13],≥ 37900 nM
same,Kd,HLA-A*26:01; [13],≥ 77900 nM
same,Kd,HLA-A*30:02; [13],≥ 76900 nM
same,Kd,HLA-A*24:02; [13],≥ 77500 nM
same,Kd,HLA-A*23:01; [13],≥ 63200 nM
same,Kd,HLA-A*29:02; [13],≥ 78900 nM
VTFKNPHAK,Kd,HLA-A*68:01,133 nM
same,Kd,HLA-A*11:01,137 nM
same,Kd,HLA-A*03:01,9.59 nM
same,Kd,HLA-A*30:01,278 nM
AGFVAGLTY,Kd,HLA-A*01:01; [14],≥ 35300 nM
same,Kd,HLA-A*26:01; [14],≥ 77900 nM
same,Kd,HLA-A*30:02; [14],520 nM
same,Kd,HLA-A*24:02; [14],≥ 52600 nM
same,Kd,HLA-A*23:01; [14],8020 nM
same,Kd,HLA-A*29:02; [14],130 nM
SARGLCNTW,Kd,HLA-B*58:01; [15],56.5 nM
same,Kd,HLA-B*57:01; [15],112 nM
RMAILGETAW,Kd,HLA-B*44:02,1620 nM
same,Kd,HLA-B*15:01 [1]; [9],253 nM
VQYRGLYQI,Kd,HLA-B*15:01 [2]; source organism: Escherichia coli B171,107 nM
same,Kd,HLA-A*02:01,125 nM
KIEELFYSY,Kd,HLA-A*01:01; [5],540 nM
same,Kd,HLA-A*26:01; [5],≥ 81500 nM
same,Kd,HLA-A*30:02; [5],11.6 nM
same,Kd,HLA-A*24:02; [5],≥ 20700 nM
same,Kd,HLA-A*23:01; [5],≥ 23900 nM
same,Kd,HLA-A*29:02; [5],39.2 nM
YIGGTTQAF,Kd,HLA-B*46:01 [4],4420 nM
FYLCFLAFLL,Kd,HLA-A*01:01; [5],≥ 52500 nM
same,Kd,HLA-A*26:01; [5],≥ 69700 nM
same,Kd,HLA-A*30:02; [5],≥ 85700 nM
same,Kd,HLA-A*24:02; [5],13.6 nM
same,Kd,HLA-A*23:01; [5],0.0676 nM
same,Kd,HLA-A*29:02; [5],76.7 nM
FPQSNSPIE,Kd,HLA-B*53:01,243 nM
